This experiment addresses T1, TLR2 receptor (Homo sapiens, UniProt O60603).
T1 construct: endogenous in cells; host or cells: purified monocytes
Nature of the experiment: Monocyte activation (TNFα, CD80/MHC-II) in absence or presence of anti-TLR2 antibody. The class given is cell-based. The following applies: FIG. 29 and FIG. 30.

Ends that are not written are not given here. * marks the point of attachment. Palmitoyl = CCCCCCCCCCCCCCCC(=O)*

T1 sequence (O60603 21-784): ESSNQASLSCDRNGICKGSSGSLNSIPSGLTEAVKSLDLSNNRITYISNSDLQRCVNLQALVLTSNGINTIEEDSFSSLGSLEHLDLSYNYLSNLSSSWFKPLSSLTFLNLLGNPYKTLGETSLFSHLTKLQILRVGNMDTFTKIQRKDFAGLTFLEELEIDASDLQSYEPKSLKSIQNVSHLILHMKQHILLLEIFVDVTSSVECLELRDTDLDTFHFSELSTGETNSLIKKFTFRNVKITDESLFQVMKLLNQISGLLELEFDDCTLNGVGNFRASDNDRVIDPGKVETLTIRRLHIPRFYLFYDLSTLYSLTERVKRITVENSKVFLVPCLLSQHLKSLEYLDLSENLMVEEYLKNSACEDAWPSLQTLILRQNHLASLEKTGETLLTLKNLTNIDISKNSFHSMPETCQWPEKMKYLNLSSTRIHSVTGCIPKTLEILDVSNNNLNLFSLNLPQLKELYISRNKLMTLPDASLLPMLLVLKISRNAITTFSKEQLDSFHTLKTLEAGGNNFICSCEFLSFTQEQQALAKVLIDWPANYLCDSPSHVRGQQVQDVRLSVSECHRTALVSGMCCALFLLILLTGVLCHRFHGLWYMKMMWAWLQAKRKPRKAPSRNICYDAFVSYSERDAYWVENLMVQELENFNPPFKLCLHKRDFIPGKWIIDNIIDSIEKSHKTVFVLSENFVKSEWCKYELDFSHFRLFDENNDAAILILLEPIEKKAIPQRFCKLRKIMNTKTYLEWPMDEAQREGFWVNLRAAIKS

On to “N-palmitoyl-S-[2,3-bis(palmitoyloxy)-(2R,S)-propyl]-(R)-cysteinyl-seryl-(lysyl)(3)-lysine (Palmitoyl-C(2,3‑bis(palmitoyloxy)‑(2R,S)‑propyl)SKKKK) [PAMcsk, synthetic lipopeptide positive control]”, for which the “effect of anti-TLR2 antibody on activation (TNFα assay, CD80/MHC-II assay)” value is “able to block activation”.

For the origin of these results see patent publication US20090136547A1, “ZWITTERIONIZATION OF CAPSULAR SACCHARIDES” (NOVARTIS VACCINES AND DIAGNOSTICS SRL, priority 2005, published 2009).
